In paper PMC3104014 (The Biochemical journal, 2010):

Molecular target: the molecule itself
Assay: SEC-MALS

B1: rat RNF4 RING domain (residues 124-194) (domain or fragment, UniProt O88846 124-194, looked up)
chain: GTTGLRPSGTVSCPICMDGYSEIVQNGRLIVSTECGHVFCSQCLRDSLKNANTCPTCRKKINHKRYHPIYI
stoichiometry N: 2
